According to the supplement of paper PMC5998384:

Key:
[1] = test system: HeLa Kyoto; test: melting temperature (median over replicates), in situ; higher = more thermally stable
[2] = test system: HeLa Kyoto; test: solubility in G1/S (NP-40 vs SDS abundance) (log2 ratio); higher = more soluble; conditions: cell cycle stage: G1/S
[3] = test system: HeLa Kyoto; test: thermal stability score vs G1/S (z-score of summed log2 fold changes over temperatures); higher = more thermally stable than in G1/S
[4] = test system: HeLa Kyoto; test: solubility change mitosis vs G1/S (difference of NP-40 vs SDS log2 ratios) (log2 ratio difference); higher = more soluble in mitosis
[5] = cell cycle stage: early G1 (4.5 h after nocodazole release)
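Wherever melting temperature (median over replicates), in situ is given: HeLa Kyoto cells synchronized by double thymidine or nocodazole block, proteins quantified by TMT10plex mass spectrometry, three independent biological replicates.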
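Wherever solubility change mitosis vs G1/S (difference of NP-40 vs SDS log2 ratios) is given: synchronized HeLa Kyoto cells (double thymidine block for G1/S, nocodazole release for mitosis), protein amounts in NP-40 versus SDS lysates quantified by mass spectrometry, three biological replicates.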
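Wherever solubility in G1/S (NP-40 vs SDS abundance) is given: HeLa Kyoto cells arrested at G1/S by double thymidine block, proteins quantified by TMT10plex mass spectrometry in mild NP-40 versus SDS extracts, three biological replicates.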
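Wherever thermal stability score vs G1/S (z-score of summed log2 fold changes over temperatures) is given: synchronized HeLa Kyoto cells, proteins quantified by TMT10plex mass spectrometry, three biological replicates, mitosis taken 0.5 h after nocodazole release, G1/S directly after double thymidine block.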

Sequence of PUDP (chain, as listed by the source): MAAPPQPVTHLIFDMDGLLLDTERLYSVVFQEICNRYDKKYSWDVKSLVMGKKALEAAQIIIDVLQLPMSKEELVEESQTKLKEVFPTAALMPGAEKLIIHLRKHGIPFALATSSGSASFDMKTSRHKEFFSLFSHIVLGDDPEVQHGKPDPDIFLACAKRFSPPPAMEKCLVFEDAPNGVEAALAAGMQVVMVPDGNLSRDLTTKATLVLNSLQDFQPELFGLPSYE
Sequence of OXSM (chain, as listed by the source): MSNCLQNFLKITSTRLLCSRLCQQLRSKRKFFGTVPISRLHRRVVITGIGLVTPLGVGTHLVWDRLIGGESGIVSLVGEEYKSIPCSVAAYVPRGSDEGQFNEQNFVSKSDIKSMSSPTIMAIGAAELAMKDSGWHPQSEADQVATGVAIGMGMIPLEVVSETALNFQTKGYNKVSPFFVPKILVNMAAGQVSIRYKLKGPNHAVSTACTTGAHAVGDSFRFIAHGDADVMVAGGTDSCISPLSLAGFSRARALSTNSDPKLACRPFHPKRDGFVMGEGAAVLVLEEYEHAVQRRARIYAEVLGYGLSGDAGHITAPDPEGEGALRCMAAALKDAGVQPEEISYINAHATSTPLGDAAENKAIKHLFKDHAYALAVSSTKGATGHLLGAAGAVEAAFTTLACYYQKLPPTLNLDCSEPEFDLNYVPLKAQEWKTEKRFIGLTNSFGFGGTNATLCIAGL
Sequence of NEK7 (chain, as listed by the source): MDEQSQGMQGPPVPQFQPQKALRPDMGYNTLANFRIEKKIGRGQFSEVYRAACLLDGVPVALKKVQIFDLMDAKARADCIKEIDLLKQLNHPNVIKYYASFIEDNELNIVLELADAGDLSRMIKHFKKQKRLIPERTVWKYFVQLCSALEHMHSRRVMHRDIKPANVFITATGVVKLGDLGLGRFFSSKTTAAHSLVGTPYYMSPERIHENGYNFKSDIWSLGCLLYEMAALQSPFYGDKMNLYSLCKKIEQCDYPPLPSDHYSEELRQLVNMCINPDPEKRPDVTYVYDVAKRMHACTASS
Sequence of TANC1 (chain, as listed by the source): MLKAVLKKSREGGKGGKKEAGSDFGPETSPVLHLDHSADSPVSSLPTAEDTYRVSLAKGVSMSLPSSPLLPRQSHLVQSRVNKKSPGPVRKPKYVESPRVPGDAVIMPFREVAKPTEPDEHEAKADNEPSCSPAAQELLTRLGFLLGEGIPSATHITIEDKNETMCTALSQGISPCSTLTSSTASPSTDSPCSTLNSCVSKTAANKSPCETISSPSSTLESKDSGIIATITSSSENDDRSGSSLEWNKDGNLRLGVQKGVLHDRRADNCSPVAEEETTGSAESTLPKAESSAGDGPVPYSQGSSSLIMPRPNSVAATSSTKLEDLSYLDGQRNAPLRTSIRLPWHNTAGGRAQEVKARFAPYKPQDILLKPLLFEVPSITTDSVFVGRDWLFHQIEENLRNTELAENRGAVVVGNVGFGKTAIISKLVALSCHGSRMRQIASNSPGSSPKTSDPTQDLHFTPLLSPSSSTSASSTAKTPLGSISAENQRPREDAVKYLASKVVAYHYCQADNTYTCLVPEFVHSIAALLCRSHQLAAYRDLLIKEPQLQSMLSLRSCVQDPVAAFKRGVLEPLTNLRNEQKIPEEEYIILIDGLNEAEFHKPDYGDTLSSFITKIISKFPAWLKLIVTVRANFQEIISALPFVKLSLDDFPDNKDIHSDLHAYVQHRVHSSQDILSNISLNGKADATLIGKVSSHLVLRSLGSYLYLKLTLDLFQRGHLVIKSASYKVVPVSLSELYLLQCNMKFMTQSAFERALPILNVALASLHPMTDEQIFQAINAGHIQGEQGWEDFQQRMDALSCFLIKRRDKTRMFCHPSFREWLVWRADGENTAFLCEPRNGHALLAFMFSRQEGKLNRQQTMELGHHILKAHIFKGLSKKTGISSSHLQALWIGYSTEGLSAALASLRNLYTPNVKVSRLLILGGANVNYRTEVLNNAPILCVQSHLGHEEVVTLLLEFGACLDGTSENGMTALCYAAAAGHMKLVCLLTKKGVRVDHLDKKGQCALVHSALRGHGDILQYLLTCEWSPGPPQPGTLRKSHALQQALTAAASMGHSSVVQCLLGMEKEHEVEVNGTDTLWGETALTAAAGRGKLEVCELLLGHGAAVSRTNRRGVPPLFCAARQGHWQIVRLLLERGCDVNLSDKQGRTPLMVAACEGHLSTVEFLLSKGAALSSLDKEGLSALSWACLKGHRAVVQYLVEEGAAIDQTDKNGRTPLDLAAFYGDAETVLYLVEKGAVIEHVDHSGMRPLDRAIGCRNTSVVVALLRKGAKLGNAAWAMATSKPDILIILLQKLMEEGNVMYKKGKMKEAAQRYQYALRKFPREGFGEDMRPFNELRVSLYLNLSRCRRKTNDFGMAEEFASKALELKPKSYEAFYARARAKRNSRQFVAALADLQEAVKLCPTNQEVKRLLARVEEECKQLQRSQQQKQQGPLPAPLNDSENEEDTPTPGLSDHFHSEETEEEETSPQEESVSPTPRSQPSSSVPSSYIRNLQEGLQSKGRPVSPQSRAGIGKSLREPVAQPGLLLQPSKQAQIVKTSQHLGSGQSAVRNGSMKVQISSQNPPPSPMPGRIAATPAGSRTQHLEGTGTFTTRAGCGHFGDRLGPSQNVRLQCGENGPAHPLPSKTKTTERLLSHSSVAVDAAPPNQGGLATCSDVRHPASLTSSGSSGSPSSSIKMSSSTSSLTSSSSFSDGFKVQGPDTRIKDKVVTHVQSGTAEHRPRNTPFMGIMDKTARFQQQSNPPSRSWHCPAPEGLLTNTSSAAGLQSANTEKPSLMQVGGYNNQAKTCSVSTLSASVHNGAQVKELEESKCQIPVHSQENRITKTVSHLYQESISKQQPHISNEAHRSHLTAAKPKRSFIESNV
Sequence of SLC27A4 (chain, as listed by the source): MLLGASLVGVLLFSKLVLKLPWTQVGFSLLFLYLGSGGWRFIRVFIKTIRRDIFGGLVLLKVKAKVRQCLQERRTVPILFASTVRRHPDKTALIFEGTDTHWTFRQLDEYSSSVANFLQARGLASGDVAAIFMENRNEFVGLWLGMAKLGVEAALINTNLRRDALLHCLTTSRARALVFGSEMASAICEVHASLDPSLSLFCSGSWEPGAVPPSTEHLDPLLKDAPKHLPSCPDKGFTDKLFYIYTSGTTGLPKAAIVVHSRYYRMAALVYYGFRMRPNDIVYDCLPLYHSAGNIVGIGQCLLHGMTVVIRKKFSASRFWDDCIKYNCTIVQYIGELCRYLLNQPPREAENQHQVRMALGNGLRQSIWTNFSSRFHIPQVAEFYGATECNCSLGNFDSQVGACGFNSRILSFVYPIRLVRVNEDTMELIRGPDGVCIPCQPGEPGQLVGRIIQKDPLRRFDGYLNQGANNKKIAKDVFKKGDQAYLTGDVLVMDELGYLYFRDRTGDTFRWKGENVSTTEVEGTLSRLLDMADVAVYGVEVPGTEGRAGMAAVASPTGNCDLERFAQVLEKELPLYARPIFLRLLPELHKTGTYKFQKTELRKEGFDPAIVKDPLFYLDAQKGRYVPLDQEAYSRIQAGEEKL
Sequence of TROVE2 (chain, as listed by the source): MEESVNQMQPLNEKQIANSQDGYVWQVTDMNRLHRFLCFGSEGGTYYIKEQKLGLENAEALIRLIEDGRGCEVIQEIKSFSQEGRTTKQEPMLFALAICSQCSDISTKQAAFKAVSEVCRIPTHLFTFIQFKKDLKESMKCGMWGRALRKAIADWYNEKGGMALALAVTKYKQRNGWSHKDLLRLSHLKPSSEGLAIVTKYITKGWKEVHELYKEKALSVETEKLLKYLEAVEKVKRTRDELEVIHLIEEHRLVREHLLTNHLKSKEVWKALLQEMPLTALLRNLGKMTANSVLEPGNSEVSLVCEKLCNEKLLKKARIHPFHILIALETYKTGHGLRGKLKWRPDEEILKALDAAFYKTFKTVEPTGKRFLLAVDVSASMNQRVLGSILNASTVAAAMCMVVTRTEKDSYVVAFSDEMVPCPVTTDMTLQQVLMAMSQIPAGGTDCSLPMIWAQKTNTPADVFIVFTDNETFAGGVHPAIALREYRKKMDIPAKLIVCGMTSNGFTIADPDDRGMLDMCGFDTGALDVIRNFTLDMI
Sequence of TXNDC12 (chain, as listed by the source): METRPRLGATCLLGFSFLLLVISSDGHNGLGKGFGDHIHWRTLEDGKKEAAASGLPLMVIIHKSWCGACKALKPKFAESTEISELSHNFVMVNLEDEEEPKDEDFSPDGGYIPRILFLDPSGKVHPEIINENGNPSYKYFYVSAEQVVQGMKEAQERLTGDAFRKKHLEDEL
Sequence of PPCS (chain, as listed by the source): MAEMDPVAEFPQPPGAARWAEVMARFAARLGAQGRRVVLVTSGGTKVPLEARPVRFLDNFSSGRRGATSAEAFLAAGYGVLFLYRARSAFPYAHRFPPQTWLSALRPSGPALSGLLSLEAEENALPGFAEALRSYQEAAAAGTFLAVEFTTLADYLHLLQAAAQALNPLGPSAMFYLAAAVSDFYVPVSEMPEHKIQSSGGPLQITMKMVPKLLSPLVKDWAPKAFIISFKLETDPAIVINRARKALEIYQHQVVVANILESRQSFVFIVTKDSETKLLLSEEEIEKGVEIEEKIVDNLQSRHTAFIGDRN
Sequence of PDCD10 (chain, as listed by the source): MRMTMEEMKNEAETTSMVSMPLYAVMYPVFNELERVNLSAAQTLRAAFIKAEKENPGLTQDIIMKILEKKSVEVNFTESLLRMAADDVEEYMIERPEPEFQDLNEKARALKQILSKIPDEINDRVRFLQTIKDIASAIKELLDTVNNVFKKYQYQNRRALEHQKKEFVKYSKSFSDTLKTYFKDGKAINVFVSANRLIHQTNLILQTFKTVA
Sequence of PSMA6 (chain, as listed by the source): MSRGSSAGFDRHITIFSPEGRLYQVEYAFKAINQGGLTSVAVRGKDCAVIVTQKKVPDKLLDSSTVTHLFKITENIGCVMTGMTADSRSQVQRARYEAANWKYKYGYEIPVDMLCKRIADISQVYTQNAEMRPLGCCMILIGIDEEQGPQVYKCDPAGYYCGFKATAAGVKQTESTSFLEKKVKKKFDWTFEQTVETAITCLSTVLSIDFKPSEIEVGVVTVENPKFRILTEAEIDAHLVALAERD

Substance	melting temperature ([1]; cell cycle stage: G1/S) [°C]	melting temperature ([1]; cell cycle stage: mitosis) [°C]	solubility in G1/S (log2) [2]	thermal stability score [3, 5]	thermal stability score ([3]; cell cycle stage: mitosis)	solubility change mitosis (log2) [4]
MYATDSRGHSPAFLQPQNGNSRHPSGYVPGKVVPLRPPPPPKSQASAKFTSIRREDRATFAFSPEEQQAQRESQKQKRHKNTFICFAITSFSFFIALAIILGISSKYAPDENCPDQNPRLRNWDPGQDSAKQVVIKEGDMLRLTSDATVHSIVIQDGGLLVFGDNKDGSRNITLRTHYILIQDGGALHIGAEKCRYKSKATITLYGKSDEGESMPTFGKKFIGVEAGGTLELHGARKASWTLLARTLNSSGLPFGSYTFEKDFSRGLNVRVIDQDTAKILESERFDTHEYRNESRRLQEFLRFQDPGRIVAIAVGDSAAKSLLQGTIQMIQERLGSELIQGLGYRQAWALVGVIDGGSTSCNESVRNYENHSSGGKALAQREFYTVDGQKFSVTAYSEWIEGVSLSGFRVEVVDGVKLNLLDDVSSWKPGDQIVVASTDYSMYQAEEFTLLPCSECSHFQVKVKETPQFLHMGEIIDGVDMRAEVGILTRNIVIQGEVEDSCYAENQCQFFDYDTFGGHIMIMKNFTSVHLSYVELKHMGQQQMGRYPVHFHLCGDVDYKGGYRHATFVDGLSIHHSFSRCITVHGTNGLLIKDTIGFDTLGHCFFLEDGIEQRNTLFHNLGLLTKPGTLLPTDRNNSMCTTMRDKVFGNYIPVPATDCMAVSTFWIAHPNNNLINNAAAGSQDAGIWYLFHKEPTGESSGLQLLAKPELTPLGIFYNNRVHSNFKAGLFIDKGVKTTNSSAADPREYLCLDNSARFRPHQDANPEKPRVAALIDRLIAFKNNDNGAWVRGGDIIVQNSAFADNGIGLTFASDGSFPSDEGSSQEVSESLFVGESRNYGFQGGQNKYVGTGGIDQKPRTLPRNRTFPIRGFQIYDGPIHLTRSTFKKYVPTPDRYSSAIGFLMKNSWQITPRNNISLVKFGPHVSLNVFFGKPGPWFEDCEMDGDKNSIFHDIDGSVTGYKDAYVGRMDNYLIRHPSCVNVSKWNAVICSGTYAQVYVQTWSTQNLSMTITRDEYPSNPMVLRGINQKAAFPQYQPVVMLEKGYTIHWNGPAPRTTFLYLVNFNKNDWIRVGLCYPSNTSFQVTFGYLQRQNGSLSKIEEYEPVHSLEELQRKQSERKFYFDSSTGLLFLYLKAKSHRHGHSYCSSQGCERVKIQAATDSKDISNCMAKAYPQYYRKPSVVKRMPAMLTGLCQGCGTRQVVFTSDPHKSYLPVQFQSPDKAETQRGDPSVISVNGTDFTFRSAGVLLLVVDPCSVPFRLTEKTVFPLADVSRIEEYLKTGIPPRSIVLLSTRGEIKQLNISHLLVPLGLAKPAHLYDKGSTIFLGFSGNFKPSWTKLFTSPAGQGLGVLEQFIPLQLDEYGCPRATTVRRRDLELLKQASKAH [TMEM2]	55.3	55.5	0.114	-1.5	-0.419	-0.018
MYCBP2	51.4	50.8	-0.39	-0.686	-0.306	0.0594
MYGSARSVGKVEPSSQSPGRSPRLPRSPRLGHRRTNSTGGSSGSSVGGGSGKTLSMENIQSLNAAYATSGPMYLSDHENVGSETPKSTMTLGRSGGRLPYGVRMTAMGSSPNIASSGVASDTIAFGEHHLPPVSMASTVPHSLRQARDNTIMDLQTQLKEVLRENDLLRKDVEVKESKLSSSMNSIKTFWSPELKKERALRKDEASKITIWKEQYRVVQEENQHMQMTIQALQDELRIQRDLNQLFQQDSSSRTGEPCVAELTEENFQRLHAEHERQAKELFLLRKTLEEMELRIETQKQTLNARDESIKKLLEMLQSKGLSAKATEEDHERTRRLAEAEMHVHHLESLLEQKEKENSMLREEMHRRFENAPDSAKTKALQTVIEMKDSKISSMERGLRDLEEEIQMLKSNGALSTEEREEEMKQMEVYRSHSKFMKNKVEQLKEELSSKEAQWEELKKKAAGLQAEIGQVKQELSRKDTELLALQTKLETLTNQFSDSKQHIEVLKESLTAKEQRAAILQTEVDALRLRLEEKETMLNKKTKQIQDMAEEKGTQAGEIHDLKDMLDVKERKVNVLQKKIENLQEQLRDKEKQMSSLKERVKSLQADTTNTDTALTTLEEALAEKERTIERLKEQRDRDEREKQEEIDNYKKDLKDLKEKVSLLQGDLSEKEASLLDLKEHASSLASSGLKKDSRLKTLEIALEQKKEECLKMESQLKKAHEAALEARASPEMSDRIQHLEREITRYKDESSKAQAEVDRLLEILKEVENEKNDKDKKIAELERQVKDQNKKVANLKHKEQVEKKKSAQMLEEARRREDNLNDSSQQLQDSLRKKDDRIEELEEALRESVQITAEREMVLAQEESARTNAEKQVEELLMAMEKVKQELESMKAKLSSTQQSLAEKETHLTNLRAERRKHLEEVLEMKQEALLAAISEKDANIALLELSSSKKKTQEEVAALKREKDRLVQQLKQQTQNRMKLMADNYEDDHFKSSHSNQTNHKPSPDQIIQPLLELDQNRSKLKLYIGHLTTLCHDRDPLILRGLTPPASYNLDDDQAAWENELQKMTRGQLQDELEKGERDNAELQEFANAILQQIADHCPDILEQVVNALEESS [ERC1]	48.4	50.1	0.626	1.35	1.65	0.00205
MYLQVETRTSSRLHLKRAPGIRSWSLLVGILSIGLAAAYYSGDSLGWKLFYVTGCLFVAVQNLEDWEEAIFDKSTGKVVLKTFSLYKKLLTLFRAGHDQVVVLLHDVRDVSVEEEKVRYFGKGYMVVLRLATGFSHPLTQSAVMGHRSDVEAIAKLITSFLELHCLESPTELSQSSDSEAGDPASQS [C17ORF62]	55	55.1	-0.124	-1.46	-0.834	-0.128
MYO5A	51.1	49.6	-0.679	0.0646	-0.152	0.167
MYYKFSGFTQKLAGAWASEAYSPQGLKPVVSTEAPPIIFATPTKLTSDSTVYDYAGKNKVPELQKFFQKADGVPVYLKRGLPDQMLYRTTMALTVGGTIYCLIALYMASQPKNK [COX7A2L]	55.7	52.3	-0.0362	-2.74	-1.52	0.107
NEK7	49.1	49.4	0.62	1.38	1.14	-0.165
NFIC	56.8	57.3	0.109	-1.32	2.11	0.0157
NIFK	51.7	52.8	-1.88	4.37	4.42	0.784
NOTCH2	50.1	51	-0.0358	-1.09	-2.98	-0.171
NUMA1	47.7	49.7	-0.199	5.09	8.74	0.493
OXSM	58.8	61.2	-0.149	0.339	-0.889	-0.0154
PDCD10	49.2	50.7	0.326	1.11	1.24	-0.0258
PHF3	53.2	53.7	-0.532	0.714	2.75	0.194
PHF5A	53.8	52.2	-0.51	-3.94	-5.73	0.276
PHF23	51.1	53.2	0.107	-0.742	0.2	0.0233
PIK3C2A	49.3	48.6	-0.334	-0.0214	0.282	-0.063
PPCS	52.1	52.9	0.249	-0.584	-0.132	-0.173
PPIH	49.9	49.5	0.00262	1.19	0.86	0.0864
PSMA6	62.9	60.9	-0.0362	-1.86	-3.6	0.0779
PTBP1	49.1	48.6	0.378	5.29	9.17	0.0339

Substance	melting temperature ([1]; cell cycle stage: G1/S) [°C]	melting temperature ([1]; cell cycle stage: mitosis) [°C]	solubility in G1/S (log2) [2]	thermal stability score [3, 5]	thermal stability score ([3]; cell cycle stage: mitosis)	solubility change mitosis (log2) [4]
PUDP	54.5	55.5	0.454	1.26	0.384	-0.0216
RABGAP1	50.9	50.5	-0.122	-0.113	-0.37	-0.111
RALGAPA1	50.2	50.8	-0.0986	-0.328	-0.518	-0.16
RAP1GAP2	50.3	50.3	0.164	0.21	0.699	0.327
RHOC	53.8	54.8	0.0468	-0.123	-1.75	-0.013
RREB1	49.4	50.8	-0.318	0.176	1.2	0.214
RSBN1L	54.7	53.4	-0.468	-0.891	-3.56	0.0823
RSRC2	51.8	52.2	-0.575	2.6	0.263	0.135
SAFB2	50.3	51.4	-0.828	0.782	0.916	0.345
SEC16A	49.4	49.7	-0.0963	0.0465	2.03	-0.00335
SLC27A4	50.3	50.9	-0.211	0.342	0.581	-0.138
SLC35E1	51.3	52	-0.14	0.109	0.648	-0.172
SLTM	51.1	51.4	-1.17	0.205	2.43	0.595
STK38	48.3	49.1	-0.0452	0.464	1.32	-0.159
SUMF2	52.9	54.7	0.289	4.15	3.23	0.00354
TANC1	50.1	50.7	-0.0445	-0.0485	0.875	-0.166
TARBP1	52.3	51.6	-0.262	0.335	-0.385	-0.207
TENM3	54.9	55.6	0.0433	-2.98	-2.29	-0.0942
THADA	51.6	50.2	-0.395	-0.0368	-1.12	-0.159
TIMM50	51.4	50.8	0.393	-0.406	-0.388	-0.0286
TMED2	55.5	55.3	0.169	1.23	2.29	-0.171

Substance	melting temperature ([1]; cell cycle stage: G1/S) [°C]	melting temperature ([1]; cell cycle stage: mitosis) [°C]	solubility in G1/S (log2) [2]	thermal stability score [3, 5]	thermal stability score ([3]; cell cycle stage: mitosis)	solubility change mitosis (log2) [4]
TMEM55B	53.4	53.5	0.135	-1.51	-1.58	-0.162
TOP2A	51	52.8	-2.15	-0.453	3.49	-0.207
TRIO	48.9	49.5	-0.25	-0.165	0.739	-0.0514
TRIP11	49.1	49	0.34	0.295	1.48	-0.135
TROVE2	57.5	54.7	-0.149	-4.29	-4.23	-0.0914
TXNDC5	55.3	57.3	0.348	3.49	3.79	-0.0668
TXNDC12	53.5	54.2	0.365	-0.513	-0.814	0.232
UGGT1	54.2	55	-0.0908	3.04	4.09	-0.156
USP16	50.4	49.5	-0.321	-0.114	0.382	0.122
WNK1	51.9	52.2	0.0681	1.74	3.55	-0.164
XPNPEP3	53.4	53.3	0.275	-0.645	-2.12	-0.146
XPO4	52.4	52	-0.0631	0.898	0.432	-0.113
YBX3	54	53.8	0.366	-3.49	-8.21	-0.0607
ZCCHC6	49.9	49.3	-0.226	1.03	2.02	0.0648
ZFYVE16	53.2	52.7	-0.0282	-2.53	-1.48	-0.171
ZNF629	53.4	52.9	-0.355	0.477	-1.32	-0.0563
ZNF787	51.9	54.5	-0.0171	-0.71	-1.22	0.398
ZNFX1	50.3	49.5	-0.239	-0.325	0.64	-0.0887
ZWILCH	50.9	50.2	0.0446	0.346	0.376	-0.229
